Experimental data from IntAct's records for PubMed 8626665.

B1: Transcription initiation factor IIA subunit 2 (Homo sapiens), P52657 (parent)
chain: MAYQLYRNTTLGNSLQESLDELIQSQQITPQLALQVLLQFDKAINAALAQRVRNRVNFRGSLNTYRFCDNVWTFVLNDVEFREVTELIKVDKVKIVACDGKNTGSNTTE
partner: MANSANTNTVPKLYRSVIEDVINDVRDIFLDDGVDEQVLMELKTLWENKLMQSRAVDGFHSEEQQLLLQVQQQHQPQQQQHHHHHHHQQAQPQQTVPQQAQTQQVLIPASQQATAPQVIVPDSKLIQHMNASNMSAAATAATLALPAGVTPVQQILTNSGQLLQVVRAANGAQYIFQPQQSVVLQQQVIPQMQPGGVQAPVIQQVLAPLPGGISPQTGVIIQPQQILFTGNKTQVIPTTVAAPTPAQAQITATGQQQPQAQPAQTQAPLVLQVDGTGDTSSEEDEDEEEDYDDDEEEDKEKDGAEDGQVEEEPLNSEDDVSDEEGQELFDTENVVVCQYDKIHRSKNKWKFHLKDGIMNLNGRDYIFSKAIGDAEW
B2: Transcription initiation factor IIA subunit 2 (Homo sapiens), P52657 (parent)
chain: B1 chain

Variants of: B1
Details: with tf2aa_human GTF2A1, P52655

effect of a mutation on the interaction | Variant
decreasing interaction | F40A
decreasing interaction | E109A
decreasing interaction | K42A
decreasing interaction | D41A

Variants of: B2
Details: with tbp_human TBP

effect of a mutation on the interaction | Variant
decreasing interaction | D20A
decreasing interaction | Y65A
